Assay results from patent US20190106498A1, “TREATMENT FOR ACUTE MYELOID LEUKEMIA” (priority 2017, published 2019).

Assays:
soluble CD27 = assay: Serum soluble CD27 ELISA in patients; format: in vivo, human; details: representative patient
Procedure: FIG. 10 The serum samples were analysed using an ELISA (Duoset ELISA, human CD27/TNFRSF7 (cat: DY382-05, R&D Systems). Concentration of soluble CD27 in the sample is calculated from a calibration curve. The method allows measurement of the serum concentration of natural human soluble CD27 by means of a sandwich ELISA method. Goat Anti-Human CD27 Capture antibody is coated on a microplate and nonspecific binding sites are blocked. Human serum samples are applied and bound human soluble CD27 is detected and visualized by the subsequent additions of Biotinylated Goat Anti-Human CD27 Detection antibody, Streptavidin-HRP and the mixture of the colour reagent H2O2 and the chromogenic substrate tetramethylbenzidine (TMB).
To assess the effect of anti-CD70 monotherapy and combination therapy on the CD27/CD70 interaction as well as to further explore the effect on blast percentage and stemness, patients' soluble CD27 levels were also measured.

human AML cells = assay: αCD70/decitabine treatment of AML patient-derived xenografts in NSG mice; format: in vivo; details: αCD70 10 mg/kg, decitabine 1.5 mg/kg/d, 5 days
Procedure: FIGS. 1A-1I αCD70/decitabine combination therapy eradicates human CD34^+CD38^- AML stem/progenitor cells in murine xenografts. 5×10^6 FACS-purified […] cells from BM of newly diagnosed AML patients (patient […]) were injected intravenously into the tail vein of sub-lethally irradiated NSG mice. After engraftment (day 32 (P10) and day 97 (P25) after transplantation), mice were randomized and subjected to treatment with control mAb and 10 mg/kg αCD70 mAb (41D12-D) intraperitoneally (total of 3 injections) or decitabine and (1.5 mg/kg/day) for five consecutive days alone or in combination. One day after the last treatment, animals were sacrificed and blood, spleen and BM were analyzed. (FIG. 1A) Experimental setup. (FIG. 1B) CD70 expression on CD34^+CD38^- AML stem/progenitor cells. Isotype is depicted in grey; CD70 staining in black (P10) and blue (P25). […] (FIG. 1G) Representative FACS plots and (FIG. 1H) quantification indicating the frequency of CD38^- AML cells within […]^loin^-CD90^-CD34+ AML stem/progenitor cell population. […] 32 days after engraftment (engraftment in PB: 14.45+/-0.95%), NSG mice were randomized to treatment with vehicle (Veh), αCD70 mAb (αCD70, ARGX-110, 10 mg/kg), decitabine (D, 1.5 mg/kg/d) or the combination (αCD70/D) for 5 days and bone marrow, spleen and blood were analyzed.

Numb = Numb expression in purified AML blasts of patients; format: in vivo, human; details: monotherapy at C1D1; combination at C4D1
Procedure: FIGS. 8A-8B Purified AML blasts (FACS gate: CD45^dim SSC^low AV^−CD4^−CD8^−CD19^−) were fixed, permeabilized and cells incubated overnight with α-Numb antibody, followed by staining with a fluorescently labeled secondary antibody. DAPI was used to counterstain for DNA. Samples were acquired on an ImageStreamX® Mark II imaging flow cytometer (Amnis/EMD Millipore) and analyzed using INSPIRE™ and IDEAS® software (Amnis/EMD Millipore). FIG. 8A) Total Numb expression (Mean fluorescence intensity) was determined across the slide for bone marrow samples of one patient harvested at baseline (“screening”), after ARGX-110 monotherapy (C1D1) and after combination treatment (C4D1). FIG. 8B) Symmetrically (SD) and asymmetrically dividing (AD) cells were scored for a bone marrow patient sample at baseline (“before”) and after ARGX-110 monotherapy (after αCD70).
The level of asymmetric division in a population of LSCs can be determined by measuring the level of a cell fate determinant such as the Numb protein (Riether et al., J Exp Med. 2017 February; 214(2): 359-380, incorporated herein by reference). Increased Numb expression is indicative of an increase in asymmetric division and therefore an increase in myeloid differentiation and decreased LSC populations.

B1: ARGX-110: IgG1 anti-CD70 antibody with defucosylated Fc region; VH SEQ ID NO: 4, VL SEQ ID NO: 8 (antibody, V domains shown)
VH: EVQLVESGGGLVQPGGSLRLSCAASGFTFSVYYMNWVRQAPGKGLEWVSDINNEGGTTYYADSVKGRFTISRDNSKNSLYLQMNSLRAEDTAVYYCARDAGYSNHVPIFDSWGQGTLVTVSS
VL: QAVVTQEPSLTVSPGGTVTLTCGLKSGSVTSDNFPTWYQQTPGQAPRLLIYNTNTRHSGVPDRFSGSILGNKAALTITGAQADDEAEYFCALFISNPSVEFGGGTQLTVLG
modifications: IgG1, defucosylated Fc; Custom antibody fragment
sCD27 levels after the end of treatment (EOT) (soluble CD27): rise after the end of treatment
sCD27 levels (soluble CD27; monotherapy C1D1 vs Loading, then combination therapy): reduces sCD27 levels compared to before treatment
number of CD34+CD38− and CD34+CD45− cells (LSCs) (human AML cells): reduced both the number of CD34+CD38− cells and of CD34+CD45− cells
total engraftment in the bone marrow, spleen and blood (human AML cells): reduced total engraftment
Numb expression (Numb): increased
